Results as given in US20050142106A1 (MIT, published 2005).

T1: IL-2Rα on the surface of KIT225 or F15R-Kit cells (human, UniProt P01589 22-272)
T1 construct: whole, on cells; KIT225 cells also carry some IL-2Rβ and IL-2Rγ; also called IL-2 receptor α subunit; p55
T1 sequence (looked up): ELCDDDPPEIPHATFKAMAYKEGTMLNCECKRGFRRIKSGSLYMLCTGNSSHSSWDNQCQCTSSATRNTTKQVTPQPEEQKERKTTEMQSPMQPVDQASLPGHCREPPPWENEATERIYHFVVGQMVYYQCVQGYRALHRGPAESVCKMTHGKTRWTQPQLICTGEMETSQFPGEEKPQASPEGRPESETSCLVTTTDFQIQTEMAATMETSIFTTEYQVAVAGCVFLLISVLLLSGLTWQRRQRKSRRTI

T2: IL-2Rβ on YT-2C2 cells (human, UniProt P14784 27-551)
T2 construct: whole, on cells; YT-2C2 cells express about 20,000 IL-2Rβγ, so IL-2Rγ is also present; also called p75
T2 sequence (looked up): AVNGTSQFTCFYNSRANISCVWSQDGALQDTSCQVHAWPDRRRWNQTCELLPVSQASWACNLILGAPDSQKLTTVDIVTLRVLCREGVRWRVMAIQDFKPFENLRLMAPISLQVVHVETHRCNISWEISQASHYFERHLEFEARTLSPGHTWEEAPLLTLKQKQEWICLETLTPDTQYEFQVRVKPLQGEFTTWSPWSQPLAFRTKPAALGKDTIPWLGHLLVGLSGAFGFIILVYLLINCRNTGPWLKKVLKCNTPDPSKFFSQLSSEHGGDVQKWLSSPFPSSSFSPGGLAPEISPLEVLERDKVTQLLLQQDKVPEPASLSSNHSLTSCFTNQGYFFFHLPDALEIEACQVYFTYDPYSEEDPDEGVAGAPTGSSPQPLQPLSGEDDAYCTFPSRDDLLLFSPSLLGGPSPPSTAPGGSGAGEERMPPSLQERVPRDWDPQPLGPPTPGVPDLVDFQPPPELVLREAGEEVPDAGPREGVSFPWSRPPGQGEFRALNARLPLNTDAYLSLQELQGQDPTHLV


Experiments:
[1] = target: T3, IL-15Rα on F15R-Kit cells (UniProt Q13261 31-267); experiment: flow cytometry on F15R-Kit cells
T3 construct: whole, on cells

[2] = target: T1, IL-2Rα on the surface of KIT225 or …; experiment: flow cytometry on KIT225 cells, 37 C, anti-FLAG detection
From the text: Cells were washed with ice-cold PBS, pH 7.4, containing 0.1% bovine serum albumin (BSA) and labeled with a biotinylated antibody against the FLAG epitope followed by streptavidin-phycoerythrin on ice. We washed the cells again and determined mean single cell fluorescence using an EPICS-XL flow cytometer.

[3] = target: T1, IL-2Rα on the surface of KIT225 or …; experiment: flow cytometry on F15R-Kit cells, 30 min at 37 C, pH 7.4
Description: (pH 7.4). Cell surface bound protein was measured using flow cytometry. Data from two different experiments (FIG. 12) were used to estimate Kd values.

IL-2Rβ on YT-2C2 cells = target: T2, IL-2Rβ on YT-2C2 cells; experiment: flow cytometry on YT-2C2 cells, on ice, anti-FLAG detection, global fit
[4] = target: T1, IL-2Rα on the surface of KIT225 or …; experiment: flow cytometry on KIT225 cells, 37 C; the reference value is cited from the literature

T3 sequence (Q13261 31-267, stated change not applied): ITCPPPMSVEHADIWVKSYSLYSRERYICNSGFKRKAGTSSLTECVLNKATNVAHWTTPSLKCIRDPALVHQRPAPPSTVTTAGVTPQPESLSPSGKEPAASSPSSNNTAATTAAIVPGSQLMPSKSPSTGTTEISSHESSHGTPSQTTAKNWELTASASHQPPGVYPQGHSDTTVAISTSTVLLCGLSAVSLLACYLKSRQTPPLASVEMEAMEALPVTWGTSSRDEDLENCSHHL

| Binder | binding result [1] | Kd [2] [nM] | Kd [3] [nM] | Kd (IL-2Rβ on YT-2C2 cells) [nM] | fold improvement in binding affinity relative to a wild-type Kd value of 28 nM (literature) [4] [fold] |
| --- | --- | --- | --- | --- | --- |
| IL-2 mutant M6 (V69A, Q74P, I128T) (ligand, not shown: small tags and cut ends, Soluble form secreted from yeast) APTSSSTKKTQLQLEHLLLDLQMILNGINNYKNPKLTRMLTFKFYMPKKATELKHLQCLEEELKPLEEALNLAPSKNFHLRPRDLISNINVIVLELKGSETTFMCEYADETATIVEFLNRWITFSQSTISTLT | no binding | ~1 | 1.22 | 210 | ≥ 30 |
| IL-2 mutant 1a-1 (ligand, not shown: small tags and cut ends, also called N31610-01_) APTSSSTKKTQLQLEHLLLDLQMILNGINSYKNPKLTRMLTFKFYMPKKATELKHLQCLEEELKPLEDALALAPPRNFHLRPRDLISNIHVIVLELKGSETTFMCEYADETATIVEFLNRWITFSQSIISTLT | no binding | – | 0.254 | – | – |
| IL-2 mutant 1b-8 (ligand, not shown: small tags and cut ends, also called N31618-08_) APTSSSTRKTQLRLEHLLLDLQMILDGINTYKNPRLRRMLTFKFYMPKKATELKHLQCLEEELKPLEEALNLAPSKNFHLRPRDLISNINVTVLELKGSETTFMCEYADETATIVEFLNRWITFSQSIISTLT | no binding | – | 0.409 | – | – |

The remaining binders from weak to strong by Kd [3], led by results:

| binding result [1] | Kd [2] [nM] | Kd [3] [nM] | Kd (IL-2Rβ on YT-2C2 cells) [nM] | fold improvement in binding affinity relative to a wild-type Kd value of 28 nM (literature) [4] [fold] | Binder |
| --- | --- | --- | --- | --- | --- |
| no binding | – | 1.58 | – | – | IL-2 mutant WC9 (ligand, not shown: small tags and cut ends, also called N31610-18_) APTPSSTKKARLQLEHLLLDLQMILNGINNYKNPKLTRMLTFKFYMPKKATELKHLQCLEEELKPLEEALNLAPSKNFHLRPRDLISDINVIVLELKGSETTFMCEYADETATIVEFLNRWITFSQSIISTLA |
| no binding | – | 0.778 | – | – | IL-2 mutant WE3 (ligand, not shown: small tags and cut ends, also called N31610-25_) APTSSSTKKTQLQLEHLLLDLQMILNGINSYKNPKLTRMLTFKFYMPKKATELKHLQCLEEELKPLEEALNLAPSKNFHLRPRDLISNINVIVLELKGSETTFMCEYADETATIVEFLNRWITFSQSTISTLT |
| no binding | – | 0.18 | – | – | IL-2 mutant 2-4 (ligand, not shown: small tags and cut ends, also called N31618-14_; N31610-14_) APTSSSTKKTQLQLEHLLLDLQMILNGISNHKNPRLARMLTFKFYMPEKATELKHLQCLEEELKPLEEALRLAPSKNFHLRPRDLISDVNVIVLELKGSETTFMCEYADETATIVEFLNRWITFSQSIISTLT |
